Assay results as given in paper PMC2665213 (Nucleic Acids Research, 2009).
Read-outs that look alike come from different tables or passages of the source.

Key:
[1] = target: T1, TDP-43s (RRM1-RRM2) (mouse, UniProt Q921F2 101-265); test: filter binding
[2] = target: T2, TDP-43 RRM1 (mouse, UniProt Q921F2 101-191); test: filter binding
[3] = target: T3, TDP-43 RRM2 (mouse, UniProt Q921F2 192-265); test: filter binding
[4] = target: the molecule itself; test: SEC
[5] = target: T3, TDP-43 RRM2; test: crystal structure
[6] = target: T1, TDP-43s (RRM1-RRM2); test: filter binding; remark: listed apart in the source
[7] = target: T2, TDP-43 RRM1; test: filter binding; remark: listed apart in the source
[8] = target: T3, TDP-43 RRM2; test: filter binding; remark: listed apart in the source
[9] = target: the molecule itself; test: SEC; remark: listed apart in the source

B1: (UG)3 (ssRNA)
RNA: UGUGUG
Kd [1]: 3060 nM | Kd [2]: 4690 nM | Kd [3]: 379 nM

B2: TDP-43s (truncated mouse TAR DNA-binding protein 43 covering both RRM domains) (domain or fragment)
chain: MRGSHHHHHHGSQKTSDLIVLGLPWKTTEQDLKDYFSTFGEVLMVQVKKDLKTGHSKGFGFVRFTEYETQVKVMSQRHMIDGRWCDCKLPNSKQSPDEPLRSRKVFVGRCTEDMTAEELQQFFCQYGEVVDVFIPKPFRAFAFVTFADDKVAQSLCGEDLIIKGISVHISNAEPKHNKLN
stoichiometry N [4]: 2

B3: (UG)4 (ssRNA)
RNA: UGUGUGUG
Kd [1]: 115 nM

B4: 10-mer crystal ssDNA (ssDNA)
DNA: GTTGAGCGTT
binding result [5]: binds

B5: (UG)6 (ssRNA)
RNA: UGUGUGUGUGUG
Kd [6]: 14.2 ± 1.4 nM | Kd [7]: 65.2 nM | Kd [8]: 4240 nM

B6: RRM2 (second RRM domain of mouse TDP-43) (domain or fragment)
chain: MRGSHHHHHHGSKVFVGRCTEDMTAEELQQFFCQYGEVVDVFIPKPFRAFAFVTFADDKVAQSLCGEDLIIKGISVHISNAEPKHNKLN
stoichiometry N [4]: 4 | stoichiometry N [9]: 2

B7: RRM1 (first RRM domain of mouse TDP-43) (domain or fragment, UniProt Q921F2 101-191, looked up)
chain: QKTSDLIVLGLPWKTTEQDLKDYFSTFGEVLMVQVKKDLKTGHSKGFGFVRFTEYETQVKVMSQRHMIDGRWCDCKLPNSKQSPDEPLRSR
stoichiometry N [4]: 4

B8: (UG)8 (ssRNA)
RNA: UGUGUGUGUGUGUGUG
Kd [1]: 2.79 nM
